Results reported in patent US20240002482A1 (BEIJING SOLOBIO GENETECHNOLOGY, published 2024).

B1: anti-PcrV/anti-Psl bispecific antibody STS7B159S (bispecific antibody)
heavy: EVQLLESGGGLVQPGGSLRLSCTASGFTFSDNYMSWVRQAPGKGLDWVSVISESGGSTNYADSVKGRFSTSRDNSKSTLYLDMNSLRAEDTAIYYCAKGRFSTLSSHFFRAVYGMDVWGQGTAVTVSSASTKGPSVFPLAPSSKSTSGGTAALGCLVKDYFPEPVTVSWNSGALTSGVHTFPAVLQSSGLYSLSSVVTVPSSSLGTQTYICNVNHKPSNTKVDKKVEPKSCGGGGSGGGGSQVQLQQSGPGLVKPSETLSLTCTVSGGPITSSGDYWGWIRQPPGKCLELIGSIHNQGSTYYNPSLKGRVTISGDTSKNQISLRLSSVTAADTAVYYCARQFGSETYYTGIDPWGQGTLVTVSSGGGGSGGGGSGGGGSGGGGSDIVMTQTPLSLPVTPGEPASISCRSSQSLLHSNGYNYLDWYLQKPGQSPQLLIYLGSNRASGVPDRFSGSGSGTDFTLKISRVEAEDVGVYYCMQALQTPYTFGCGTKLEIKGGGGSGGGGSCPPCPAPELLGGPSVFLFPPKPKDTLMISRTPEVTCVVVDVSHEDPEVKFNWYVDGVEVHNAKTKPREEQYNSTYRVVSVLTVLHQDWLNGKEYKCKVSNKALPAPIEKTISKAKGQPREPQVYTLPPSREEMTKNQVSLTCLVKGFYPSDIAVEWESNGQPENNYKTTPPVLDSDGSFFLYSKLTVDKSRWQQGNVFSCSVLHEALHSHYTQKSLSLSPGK
light: DIQLTQSPSSLSASVGDRVTITCRASQGISSYLAWYQQKPGKAPKLLIYAASTLQSGVPSRFSGSGSGTDFTLTISSLQPEDFATYYCQQLSSYPLTFGGGTKVEIKRTVAAPSVFIFPPSDEQLKSGTASVVCLLNNFYPREAKVQWKVDNALQSGNSQESVTEQDSKDSTYSLSSTLTLSKADYEKHKVYACEVTHQGLSSPVTKSFNRGEC
notes: also called STS7B1595
B2: anti-PcrV/anti-Psl bispecific antibody STS7B11201S (bispecific antibody)
heavy: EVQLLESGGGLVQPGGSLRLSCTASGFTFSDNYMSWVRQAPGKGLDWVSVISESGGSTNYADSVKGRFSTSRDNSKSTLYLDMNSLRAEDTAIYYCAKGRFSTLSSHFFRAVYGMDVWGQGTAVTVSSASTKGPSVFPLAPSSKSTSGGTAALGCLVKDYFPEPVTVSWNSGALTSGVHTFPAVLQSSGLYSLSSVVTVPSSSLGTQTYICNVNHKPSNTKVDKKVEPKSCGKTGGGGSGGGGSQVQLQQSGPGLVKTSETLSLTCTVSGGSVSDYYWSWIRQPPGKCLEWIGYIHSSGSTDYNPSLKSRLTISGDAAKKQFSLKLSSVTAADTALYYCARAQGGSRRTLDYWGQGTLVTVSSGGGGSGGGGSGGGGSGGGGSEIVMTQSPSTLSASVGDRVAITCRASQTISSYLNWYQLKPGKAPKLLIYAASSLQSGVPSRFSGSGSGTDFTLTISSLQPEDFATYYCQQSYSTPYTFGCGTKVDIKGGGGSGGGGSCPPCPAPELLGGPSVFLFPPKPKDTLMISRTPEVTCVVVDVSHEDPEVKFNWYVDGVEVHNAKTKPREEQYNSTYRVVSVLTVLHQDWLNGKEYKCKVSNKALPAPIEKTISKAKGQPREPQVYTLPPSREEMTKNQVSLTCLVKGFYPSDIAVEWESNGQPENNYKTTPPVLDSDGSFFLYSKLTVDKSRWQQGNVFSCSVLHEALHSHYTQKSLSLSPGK
light: B1 light
notes: also called STS7B112015
B3: anti-PcrV antibody 7B1 (antibody, V domains shown)
VH: EVQLLESGGGLVQPGGSLRLSCTASGFTFSDNYMSWVRQAPGKGLDWVSVISESGGSTNYADSVKGRFSTSRDNSKSTLYLDMNSLRAEDTAIYYCAKGRFSTLSSHFFRAVYGMDVWGQGTAVTVSS
VL: DIQLTQSPSSLSASVGDRVTITCRASQGISSYLAWYQQKPGKAPKLLIYAASTLQSGVPSRFSGSGSGTDFTLTISSLQPEDFATYYCQQLSSYPLTFGGGTKVEIK
notes: Monospecific antibody, optimized from the 13-42 lead
B4: anti-PcrV/anti-Psl bispecific antibody STS7B15925M (bispecific antibody)
heavy: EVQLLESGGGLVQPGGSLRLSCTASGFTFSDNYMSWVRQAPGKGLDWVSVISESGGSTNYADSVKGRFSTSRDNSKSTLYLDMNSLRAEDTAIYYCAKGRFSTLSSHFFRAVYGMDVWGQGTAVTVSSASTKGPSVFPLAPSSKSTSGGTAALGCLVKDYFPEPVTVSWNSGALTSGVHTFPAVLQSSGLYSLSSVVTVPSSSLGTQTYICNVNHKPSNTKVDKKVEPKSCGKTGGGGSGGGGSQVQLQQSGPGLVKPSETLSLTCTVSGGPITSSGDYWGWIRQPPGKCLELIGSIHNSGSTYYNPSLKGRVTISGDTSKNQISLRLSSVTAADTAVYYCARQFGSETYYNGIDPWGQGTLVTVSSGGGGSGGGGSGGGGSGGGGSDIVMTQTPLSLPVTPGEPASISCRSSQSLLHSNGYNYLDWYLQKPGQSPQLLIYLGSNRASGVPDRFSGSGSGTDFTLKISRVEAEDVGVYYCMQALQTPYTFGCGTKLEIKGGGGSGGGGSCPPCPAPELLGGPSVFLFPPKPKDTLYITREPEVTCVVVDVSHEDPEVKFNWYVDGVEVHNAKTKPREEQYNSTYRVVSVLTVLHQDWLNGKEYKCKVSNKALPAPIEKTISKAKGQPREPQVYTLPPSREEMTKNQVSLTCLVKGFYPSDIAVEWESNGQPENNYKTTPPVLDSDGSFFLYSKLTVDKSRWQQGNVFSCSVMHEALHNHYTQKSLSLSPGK
light: B1 light
notes: Chimeric heavy chain: VH-CH1-linker-scFv(anti-Psl)-linker-CH2-CH3; The Fab is from 7B1 (anti-PcrV); Optimized variant of STS7B15925
B5: anti-PcrV/anti-Psl bispecific antibody STS7B112M (bispecific antibody)
heavy: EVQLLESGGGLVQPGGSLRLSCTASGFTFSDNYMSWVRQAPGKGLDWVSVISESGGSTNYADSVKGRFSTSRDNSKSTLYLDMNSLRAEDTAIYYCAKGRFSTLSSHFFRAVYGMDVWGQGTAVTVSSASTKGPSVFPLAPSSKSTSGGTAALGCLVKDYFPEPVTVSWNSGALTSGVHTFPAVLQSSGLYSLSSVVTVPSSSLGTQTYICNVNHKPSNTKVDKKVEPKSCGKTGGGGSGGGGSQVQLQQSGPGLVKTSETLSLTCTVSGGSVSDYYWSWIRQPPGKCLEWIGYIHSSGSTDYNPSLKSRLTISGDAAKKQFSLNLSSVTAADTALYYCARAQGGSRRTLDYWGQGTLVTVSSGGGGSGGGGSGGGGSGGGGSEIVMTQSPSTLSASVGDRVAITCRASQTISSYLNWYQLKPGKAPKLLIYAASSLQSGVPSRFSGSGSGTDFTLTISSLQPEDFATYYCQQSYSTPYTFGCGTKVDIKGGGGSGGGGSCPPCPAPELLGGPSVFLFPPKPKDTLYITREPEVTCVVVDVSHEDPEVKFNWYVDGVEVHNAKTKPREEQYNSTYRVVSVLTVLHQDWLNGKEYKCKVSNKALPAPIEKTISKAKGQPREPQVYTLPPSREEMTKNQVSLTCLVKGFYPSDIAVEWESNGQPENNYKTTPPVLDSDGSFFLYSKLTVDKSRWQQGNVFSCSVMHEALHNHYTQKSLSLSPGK
light: B1 light
notes: Chimeric heavy chain: 7B1 VH-CH1-linker-scFv(anti-Psl 3F12)-linker-CH2-CH3
B6: anti-PcrV/anti-Psl bispecific antibody STS7B1H924M (bispecific antibody)
heavy: EVQLLESGGGLVQPGGSLRLSCTASGFTFSDNYMSWVRQAPGKGLDWVSVISESGGSTNYADSVKGRFSTSRDNSKSTLYLDMNSLRAEDTAIYYCAKGRFSTLSSHFFRAVYGMDVWGQGTAVTVSSASTKGPSVFPLAPSSKSTSGGTAALGCLVKDYFPEPVTVSWNSGALTSGVHTFPAVLQSSGLYSLSSVVTVPSSSLGTQTYICNVNHKPSNTKVDKKVEPKSCGKTGGGGSGGGGSQVQLVQSGAEVKKPGASVKVSCKASGDTSTIHSVHWVRQAPGQCLEWMGTIISSGTTTTYAQSFQDRVSMTIDRSTSTGYMELSSLRFEDTAVYYCTTDGTSWGQGTLVTVSSGGGGSGGGGSGGGGSGGGGSDIQLTQSPSSVSASVGDRVTIACRASQGISSWLAWYQQKPGKAPKLLIYHASTLESGVPSRFSGSGSGTDFTLTISSLQPEDFATYYCLQASSLPHTFGCGTKLEIKGGGGSGGGGSCPPCPAPELLGGPSVFLFPPKPKDTLYITREPEVTCVVVDVSHEDPEVKFNWYVDGVEVHNAKTKPREEQYNSTYRVVSVLTVLHQDWLNGKEYKCKVSNKALPAPIEKTISKAKGQPREPQVYTLPPSREEMTKNQVSLTCLVKGFYPSDIAVEWESNGQPENNYKTTPPVLDSDGSFFLYSKLTVDKSRWQQGNVFSCSVMHEALHNHYTQKSLSLSPGK
light: B1 light
notes: Chimeric heavy chain: 7B1 VH-CH1-linker-scFv(anti-Psl 7H924)-linker-CH2-CH3
B7: anti-PcrV/anti-Psl bispecific antibody STS7B11201M (bispecific antibody)
heavy: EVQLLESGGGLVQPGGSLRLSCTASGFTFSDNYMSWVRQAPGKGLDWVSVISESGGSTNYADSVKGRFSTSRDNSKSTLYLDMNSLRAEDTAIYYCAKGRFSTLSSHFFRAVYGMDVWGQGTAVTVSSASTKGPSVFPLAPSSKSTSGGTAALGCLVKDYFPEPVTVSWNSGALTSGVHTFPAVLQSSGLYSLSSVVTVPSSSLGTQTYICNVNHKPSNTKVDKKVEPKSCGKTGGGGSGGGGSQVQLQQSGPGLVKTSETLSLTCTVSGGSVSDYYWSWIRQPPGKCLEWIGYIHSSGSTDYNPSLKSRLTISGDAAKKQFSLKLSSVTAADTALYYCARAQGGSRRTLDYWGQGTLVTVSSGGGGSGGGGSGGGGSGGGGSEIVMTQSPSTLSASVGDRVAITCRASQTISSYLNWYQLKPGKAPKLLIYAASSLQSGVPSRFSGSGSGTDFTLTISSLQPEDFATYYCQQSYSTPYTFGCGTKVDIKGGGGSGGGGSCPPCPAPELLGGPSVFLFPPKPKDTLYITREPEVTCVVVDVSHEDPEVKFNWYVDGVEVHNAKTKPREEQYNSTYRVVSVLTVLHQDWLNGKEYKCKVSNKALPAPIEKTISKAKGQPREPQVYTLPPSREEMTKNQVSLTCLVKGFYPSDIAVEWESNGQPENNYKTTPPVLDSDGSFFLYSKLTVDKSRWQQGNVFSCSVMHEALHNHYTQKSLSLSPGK
light: B1 light
B8: anti-PcrV/anti-Psl bispecific antibody STS7B15921M (bispecific antibody)
heavy: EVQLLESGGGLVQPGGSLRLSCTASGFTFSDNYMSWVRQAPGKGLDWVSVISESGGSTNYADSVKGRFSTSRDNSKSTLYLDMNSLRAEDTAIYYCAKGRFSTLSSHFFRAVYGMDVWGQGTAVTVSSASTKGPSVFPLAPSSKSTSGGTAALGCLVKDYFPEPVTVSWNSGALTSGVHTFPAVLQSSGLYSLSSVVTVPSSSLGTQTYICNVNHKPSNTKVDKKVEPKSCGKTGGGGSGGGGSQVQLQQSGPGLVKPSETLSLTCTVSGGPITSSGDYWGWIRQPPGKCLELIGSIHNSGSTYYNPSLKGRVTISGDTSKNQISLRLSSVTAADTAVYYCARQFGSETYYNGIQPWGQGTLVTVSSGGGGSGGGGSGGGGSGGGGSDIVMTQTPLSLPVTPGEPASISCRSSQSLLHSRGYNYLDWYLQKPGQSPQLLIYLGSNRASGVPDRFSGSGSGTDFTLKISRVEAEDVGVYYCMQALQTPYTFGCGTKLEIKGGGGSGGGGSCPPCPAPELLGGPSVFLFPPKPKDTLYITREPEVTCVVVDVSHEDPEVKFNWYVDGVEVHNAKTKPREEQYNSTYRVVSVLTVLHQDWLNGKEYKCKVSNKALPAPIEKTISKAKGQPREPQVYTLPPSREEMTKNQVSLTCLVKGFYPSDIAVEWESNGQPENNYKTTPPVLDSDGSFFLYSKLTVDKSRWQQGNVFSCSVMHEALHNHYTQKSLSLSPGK
light: B1 light
notes: Chimeric heavy chain: 7B1 VH-CH1-linker-scFv(anti-Psl P5921)-linker-CH2-CH3

Molecular target: T1, PcrV protein (Pseudomonas aeruginosa type III secretion system protein) (Pseudomonas aeruginosa)
T1 construct: The ELISA used 'synthetic PcrV' as plate coat; Biacore and BLI used 'PcrV protein' in solution; also called synthetic PcrV; Full-length PcrV
Test: SPR (BIACORE T200), 25 C; antibody captured on CM5 chip, serial dilutions of PcrV protein injected
Experimental: Binding affinity (Kd) of selected bispecific antibodies with respect to PcrV at 25° C. was determined using a real-time biosensor surface plasmon resonance assay (BIACORE™ T200). Briefly, the antibody was first captured on a CM5 chip to form an antibody surface. Serial dilutions of PcrV protein were injected over the antibody surface. Binding of antigen to antibody and dissociation of the bound complex were monitored in real time. Equilibrium dissociation constants (Kd) and dissociation rate constants were ascertained by performing kinetic analysis using BIA evaluation software.

Row | Binder | Kd [nM] | koff [s⁻¹] | kon [M⁻¹ s⁻¹]
1 | B1 | 0.179 | 3.13e-05 | 174000
2 | B2 | 0.265 | 4.52e-05 | 170000
3 | B3 | 0.335 | 4.82e-05 | 144000

Molecular target: T1, PcrV protein (Pseudomonas aeruginosa …)
Test: ELISA on plate-coated synthetic PcrV, detection with goat anti-human Fc-AP and pNPP, OD410
Experimental: STS7B15925, STS7B1H9 and STS7B112 were further optimized by introducing variants in the VH, VL, and/or Fc, giving rise to STS7B15925M, STS7B15921M, STS7B1H9M, STS7B1H924M, STS7B112M, and STS7B11201M. For the ELISA experiment, synthetic PcrV or PAO1 was used to coat the wells of a 96-well plate. On the following day, after washing with PBST, blocking with 200 μL PBS-milk for an hour, and another wash with PBST, the respective antibodies were added and incubated for an hour at 37° C. The plate was washed with 0.1% TBST 6 times before 100 μL of Goat-anti-human Fc antibody-AP (1:3000 in PBS) was added to each well and incubated for an hour. After washing with 0.1% TBST for 6 times, 50 μL of pNPP (p-nitrophenyl phosphate) was added to each well and color was developed for […] at 37 C. Subsequently, the colorimetric signals were read by a microplate reader at 410 nm. The ELISA results (OD410) were analyzed and the EC50 values were calculated.

Row | Binder | binding result
4 | B4 | binds
5 | B5 | binds
6 | B6 | binds
7 | B7 | binds
8 | B8 | binds
